Measured values published in patent US20140294884A1 (Novartis, published 2014).

How the values were obtained:
[1] = molecular target: receptor for App on Chang conjunctiva epithelial cells (proteinaceous, not identified) (human); test: cell-based or functional assay
[2] = molecular target: human receptor for NadA on Chang conjunctiva epithelial cells (pronase-sensitive protein, not identified) (human); test: FACS on Chang cells, MFI against protein concentration
[3] = molecular target: receptor for App on Chang conjunctiva epithelial cells (proteinaceous, not identified) (human); test: FACS binding assay on Chang cells (FIG. 35)
[4] = molecular target: the molecule itself; test: Western blot of whole cell lysates with anti-NadA serum (self-association)

App S267A expressed on the surface of E. coli (pET-AppS267A transformants)
fluorescence shift (cells positive to adhesion), FACS adhesion of E. coli to Chang cells [1]: 91%

App expressed from the full-length gene on the surface of E. coli (pET-App transformants)
fluorescence shift (cells positive to adhesion), FACS adhesion of E. coli to Chang cells [1]: 90.3%

Appβ expressed on the surface of E. coli (pET-Appβ transformants)
fluorescence shift, FACS adhesion of E. coli to Chang cells [1]: 74.2%

NadA (purified recombinant protein used in FACS binding to Chang cells)
concentration at which binding reaches a plateau [2]: 200 µg/mL

App-His
concentration at which binding reaches a plateau [3]: 50 µg/mL

B1: NadA allele 2 (strain 90/18311) (other)
chain: ATNDDDVKKAATVAIAAAYNNGQEINGFKAGETIYDIDEDGTITKKDATAADVEADDFKGLGLKKVVTNLTKTVNENKQNVDAKVKAAESEIEKLTTKLADTDAALDATTNALNKLGENITTFAEETKTNIVKIDEKLEAVADTVDKHAEAFNDIADSLDETNTKADEAVKTANEAKQTAEETKQNVDAKVKAAETAAGKAEAAAGTANTAADKAEAVAAKVTDIKADIATNKDNIAKKANSADVYTREESDSKFVRIDGLNATTEKLDTRLASAEKSITEHGTRLNGLDRTVSDLRKETRQGLAEQAALSGLFQPYNVGRFNVTAAVGGYKSESAVAIGTGFRFTENFAAKAGVAVGTSSGSSAAYHVGVNYEW
notes: also called allele 2 of 961
binding result [4]: binds

B2: NadA allele 1 (strain MC58) (other)
chain: ATSDDDVKKAATVAIVAAYNNGQEINGFKAGETIYDIGEDGTITQKDATAADVEADDFKGLGLKKVVTNLTKTVNENKQNVDAKVKAAESEIEKLTTKLADTDAALADTDAALDETTNALNKLGENITTFAEETKTNIVKIDEKLEAVADTVDKHAEAFNDIADSLDETNTKADEAVKTANEAKQTAEETKQNVDAKVKAAETAAGKAEAAAGTANTAADKAEAVAAKVTDIKADIATNKADIAKNSARIDSLDKNVANLRKETRQGLAEQAALSGLFQPYNVGRFNVTAAVGGYKSESAVAIGTGFRFTENFAAKAGVAVGTSSGSSAAYHVGVNYEW
notes: Oligomer of about 170 kDa; also called allele 1 of 961
binding result [4]: binds
